In patent publication US20190194304A1 one finds fold increase of the measured interactions (RU) with anti-FH.07 Fab′ against FH alone data, which are given here for one molecule.

This assay concerns the target C3d, P01024. Nature of the assay: SPR, 0.5 µM FH with anti-FH.07 Fab′ (2 to 1 molar ratio) over immobilised C3d. The settings on record: remark: other sources report otherwise. A general note: Surface plasmon resonance follows binding to a sensor surface in real time, without labels.

C3d, P01024, sequence (P01024 1002-1303 limits assumed): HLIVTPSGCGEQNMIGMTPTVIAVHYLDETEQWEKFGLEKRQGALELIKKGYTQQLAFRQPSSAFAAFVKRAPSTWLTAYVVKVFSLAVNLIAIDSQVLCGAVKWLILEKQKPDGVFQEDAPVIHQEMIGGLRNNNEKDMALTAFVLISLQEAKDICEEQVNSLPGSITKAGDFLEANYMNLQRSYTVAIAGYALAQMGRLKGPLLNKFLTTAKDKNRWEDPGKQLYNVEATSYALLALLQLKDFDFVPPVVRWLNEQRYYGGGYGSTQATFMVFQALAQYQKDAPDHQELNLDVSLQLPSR

B1: human factor H, P08603 19-1231 (protein, UniProt P08603 19-1231, looked up)
chain: EDCNELPPRRNTEILTGSWSDQTYPEGTQAIYKCRPGYRSLGNVIMVCRKGEWVALNPLRKCQKRPCGHPGDTPFGTFTLTGGNVFEYGVKAVYTCNEGYQLLGEINYRECDTDGWTNDIPICEVVKCLPVTAPENGKIVSSAMEPDREYHFGQAVRFVCNSGYKIEGDEEMHCSDDGFWSKEKPKCVEISCKSPDVINGSPISQKIIYKENERFQYKCNMGYEYSERGDAVCTESGWRPLPSCEEKSCDNPYIPNGDYSPLRIKHRTGDEITYQCRNGFYPATRGNTAKCTSTGWIPAPRCTLKPCDYPDIKHGGLYHENMRRPYFPVAVGKYYSYYCDEHFETPSGSYWDHIHCTQDGWSPAVPCLRKCYFPYLENGYNQNYGRKFVQGKSIDVACHPGYALPKAQTTVTCMENGWSPTPRCIRVKTCSKSSIDIENGFISESQYTYALKEKAKYQCKLGYVTADGETSGSITCGKDGWSAQPTCIKSCDIPVFMNARTKNDFTWFKLNDTLDYECHDGYESNTGSTTGSIVCGYNGWSDLPICYERECELPKIDVHLVPDRKKDQYKVGEVLKFSCKPGFTIVGPNSVQCYHFGLSPDLPICKEQVQSCGPPPELLNGNVKEKTKEEYGHSEVVEYYCNPRFLMKGPNKIQCVDGEWTTLPVCIVEESTCGDIPELEHGWAQLSSPPYYYGDSVEFNCSESFTMIGHRSITCIHGVWTQLPQCVAIDKLKKCKSSNLIILEEHLKNKKEFDHNSNIRYRCRGKEGWIHTVCINGRWDPEVNCSMAQIQLCPPPPQIPNSHNMTTTLNYRDGEKVSVLCQENYLIQEGEEITCKDGRWQSIPLCVEKIPCSQPPQIEHGTINSSRSSQESYAHGTKLSYTCEGGFRISEENETTCYMGKWSSPPQCEGLPCKSPPEISHGVVAHMSDSYQYGEEVTYKCFEGFGIDGPAIAKCLGEKWSHPPSCIKTDCLSLPSFENAIPMGEKKDVYKAGEQVTYTCATYYKMDGASNVTCINSRWTGRPTCRDTSCVNPPTVQNAYIVSRQMSKYPSGERVRYQCRSPYEMFGDEEVMCLNGNWTEPPQCKDSTGKCGPPPPIDNGDITSFPLSVYAPASSVEYQCQNLYQLEGNKRITCRNGQWSEPPKCLHPCVISREIMENYNIALRWTAKQKLYSRTGESVEFVCKRGYRLSSRSHTLRTTCWDGKLEYPTCAKR
Regarding B1, the fold increase of the measured interactions (RU) with anti-FH.07 Fab′ against FH alone is more than 2 fold.
